For test [1], the target named is GAS2L1 S352A (Bio-GFP-tagged) (human) (UniProt Q99501). The experiment in a line: pull-down.
For test [2], the target named is GAS2L1 S352D (Bio-GFP-tagged) (human) (UniProt Q99501). The test is described as follows: pull-down.
For test [3], the target named is T1, His6-CH (recombinant GAS2L1 CH domain, His6 tagged) (human, UniProt Q99501 1-196).
T1 sequence (looked up): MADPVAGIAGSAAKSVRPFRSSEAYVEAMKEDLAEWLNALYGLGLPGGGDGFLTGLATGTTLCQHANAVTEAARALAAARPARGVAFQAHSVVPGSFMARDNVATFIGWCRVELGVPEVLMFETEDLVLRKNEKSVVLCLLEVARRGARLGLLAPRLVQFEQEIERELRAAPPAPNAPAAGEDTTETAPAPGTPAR
The experiment in a line: pull-down.

The target of test [4] is taxol-stabilized microtubules from porcine brain α/β-tubulin (porcine) (UniProt P02550). The experiment in a line: co-sedimentation.

Consider “actin (endogenous, HEK293T; detected with anti-β-actin) (from UniProt P60709 1-375) (natural protein)”, for which the actin-binding activity relative to WT GAS2L1 in test [1] was found to be 62 % lower; in test [2], 46 % higher.

B1: His6-FLAG-GAR (recombinant GAS2L1 GAR protein, 197-300) (domain or fragment, human, UniProt Q99501 197-300, looked up)
chain: GPRMTPSDLRNLDELVREILGRCTCPDQFPMIKVSEGKYRVGDSSLLIFVRVLRSHVMVRVGGGWDTLEHYLDKHDPCRCSSTAHRPPQPRVCTFSPQRVSPTT
B1: in test [3], the binding result is listed as “binds”.

B2: His6-FLAG-CH-GAR (recombinant GAS2L1 1-300) (domain or fragment)
chain: MADPVAGIAGSAAKSVRPFRSSEAYVEAMKEDLAEWLNALYGLGLPGGGDGFLTGLATGTTLCQHANAVTEAARALAAARPARGVAFQAHSVVPGSFMARDNVATFIGWCRVELGVPEVLMFETEDLVLRKNEKSVVLCLLEVARRGARLGLLAPRLVQFEQEIERELRAAPPAPNAPAAGEDTTETAPAPGTPARGPRMTPSDLRNLDELVREILGRCTCPDQFPMIKVSEGKYRVGDSSLLIFVRVLRSHVMVRVGGGWDTLEHYLDKHDPCRCSSTAHRPPQPRVCTFSPQRVSPTT
B2 showed a microtubule-binding activity relative to the GAR protein in test [4] of 47 % lower.

For the origin of these results see PMC7199859 (The Journal of Cell Biology, 2020).
